The results in this text go back to publication PMC6362308.

The experiment deals with taxol-stabilized microtubules. Description: co-sedimentation; 0.1 uM recombinant RECQL4 with or without 2 uM taxol-stabilized microtubules, 15 min, 20,000 g for 10 min at RT; supernatant and pellet analysed by Coomassie staining and Western blot against His6-tag (Fig 1B). For orientation: Immunoblotting shows a protein as a band on a membrane.
Chain of taxol-stabilized microtubules (P68363 whole entry, chain 1 of 2): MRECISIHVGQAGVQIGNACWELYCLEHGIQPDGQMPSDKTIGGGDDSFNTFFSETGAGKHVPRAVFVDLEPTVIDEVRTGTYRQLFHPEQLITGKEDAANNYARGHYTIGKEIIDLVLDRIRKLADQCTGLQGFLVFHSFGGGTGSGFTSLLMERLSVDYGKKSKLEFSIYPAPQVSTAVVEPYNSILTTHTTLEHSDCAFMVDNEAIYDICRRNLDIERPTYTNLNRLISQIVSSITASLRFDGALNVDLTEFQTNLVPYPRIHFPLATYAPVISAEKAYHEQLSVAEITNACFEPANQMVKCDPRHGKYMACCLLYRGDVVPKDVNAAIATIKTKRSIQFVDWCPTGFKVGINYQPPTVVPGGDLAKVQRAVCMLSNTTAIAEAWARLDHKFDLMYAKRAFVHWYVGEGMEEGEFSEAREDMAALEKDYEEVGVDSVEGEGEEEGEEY
Chain of taxol-stabilized microtubules (A8K068 whole entry, chain 2 of 2, further chain): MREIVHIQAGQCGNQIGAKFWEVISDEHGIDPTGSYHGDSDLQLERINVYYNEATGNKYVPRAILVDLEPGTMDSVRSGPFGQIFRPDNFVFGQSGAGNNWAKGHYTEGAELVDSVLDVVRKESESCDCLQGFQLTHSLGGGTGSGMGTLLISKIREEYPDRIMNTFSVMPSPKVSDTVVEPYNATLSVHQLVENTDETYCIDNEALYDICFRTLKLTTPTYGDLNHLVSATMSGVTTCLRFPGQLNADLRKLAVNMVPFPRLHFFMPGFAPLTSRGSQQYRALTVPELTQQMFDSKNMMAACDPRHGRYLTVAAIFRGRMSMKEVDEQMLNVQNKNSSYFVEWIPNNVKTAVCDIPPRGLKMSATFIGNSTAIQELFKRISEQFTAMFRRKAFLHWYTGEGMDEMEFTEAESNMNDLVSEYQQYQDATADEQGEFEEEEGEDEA

For “Recombinant Xenopus RECQL4 expressed in insect cells (natural protein)”, the percent of the protein in the pellet came to 100%.
